{"source": "patent US20130137856A1", "about": "“PROTEIN BINDING DOMAINS STABILIZING FUNCTIONAL CONFORMATIONAL STATES OF GPCRS AND USES THEREOF” (priority 2010, published 2013)", "binders": {"B1": {"name": "Nanobody-80 (Nb80) (VHH, not shown: small tags and cut ends)", "VHH": "QVQLQESGGGLVQAGGSLRLSCAASGSIFSINTMGWYRQAPGKQRELVAAIHSGGSTNYANSVKGRFTISRDNAANTVYLQMNSLKPEDTAVYYCNVKDYGAVLYEYDYWGQGTQVTVSS"}}, "biological_target": "β2AR-T4L (β2AR with the third intracellular loop replaced by T4 lysozyme, truncated at position 365) (human) (UniProt P07550)", "assay": "cell-based or functional assay", "data": [{"binder": "B1", "values": [{"measurement": "High affinity state Ki of (-)-isoproterenol, [3H]-DHA competition binding, β2AR-T4L in HDL particles + 1 µM NB80 (β2AR-T4L alone: 33.5)", "value": 0.56, "unit": "nM"}, {"measurement": "fold increase of the affinity of isoproterenol", "value": 60, "unit": "fold"}]}]}
